Data reported in PMC13012646.

Target: human kallikrein 7 variant hK7-2.7 (human) (UniProt P49862)
Sequence of UniProt P49862 (P49862 30-253 Q52R/N119S/K129G/V157G/L189Q/Q228R/G233V): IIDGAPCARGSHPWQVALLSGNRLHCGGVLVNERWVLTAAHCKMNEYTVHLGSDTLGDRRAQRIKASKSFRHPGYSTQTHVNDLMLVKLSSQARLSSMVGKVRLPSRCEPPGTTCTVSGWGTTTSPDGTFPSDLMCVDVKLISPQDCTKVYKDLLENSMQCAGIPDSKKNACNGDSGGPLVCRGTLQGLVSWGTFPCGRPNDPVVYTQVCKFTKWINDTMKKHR

inhibition of Aβ8 FRET reporter cleavage (5 nM protease, 200 nM substrate, 37°C): > 130 nM
Substance: lympho-epithelial Kazal-type related inhibitor (LEKTI) fragment consisting of domains 10–15 (domain or fragment)
